# Source: the supplement of paper PMC10126150
# ± gives the standard deviation of the averaged measurements.
# Tested on: ATP
# Experiment: switch fluorescence ratio, 500 uM ATP over buffer (Cy3 cluster intensity, sum of 5 cycles each) (fold (ratio)); higher = stronger signal-on switching upon ATP binding; sequences stand for … in TCGTCGGCAGCGTCAGATGTGTATAAGAGACAGTTTTTTTTTTTTTTTTTTTTTTTTT…TC
# Conditions: aptamer strand: ATP DNA aptamer (quencher-CACCTGGGGGAGTATTGCGGAGGAAGG + anchor), 100 nM annealed; ATP concentration: 500 uM
# Outline: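 Cy3-labelled switching-strand clusters on a modified Illumina MiSeq flow-cell were annealed to 100 nM quencher-labelled ATP aptamer and imaged first in selection buffer, then after 15 min with 500 uM ATP at 22 °C. NaOH stripping and re-annealing separated each of five buffer/ATP cycles, and clusters outside 100-1000 RFU were excluded. The fluorescence ratio sums target-cycle Cy3 intensity over buffer-cycle Cy3 intensity per cluster and averages it per switch-domain sequence.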
# 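Also: ATP exposure 15 min at 22 °C before imaging.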
row,Sequence,switch fluorescence ratio
1,GTTGAGGGTA,1 ± 0.034
2,CTATAATCTA,0.976 ± 0.041
3,GAACAGGGGG,1.01 ± 0.046
4,TTGCTGTACG,1.04 ± 0.021
5,CTAGATGTTG,0.977 ± 0.0027
6,AAAGTTTGCG,1.04 ± 0.11
7,AAGGGATGAT,0.978 ± 0.019
8,GGCTAAGGGG,0.992 ± 0.023
9,GGTTTACAGC,0.979 ± 0.012
10,GCCACAGTCG,1.01 ± 0.022
11,ATATATTTGT,1.008 ± 0.0041
12,CAATGCGGAG,1 ± 0.015
13,GGCCCGGGGC,0.995 ± 0.017
14,GGGGGTTCCT,1 ± 0.032
15,TGTTTTATCG,0.999 ± 0.028
16,TCCCGTAAGT,1.05 ± 0.069
17,TTCACGAGTG,0.988 ± 0.052
18,TGTTTTTAAT,0.99 ± 0.025
19,GTTAATGTCG,1.056 ± 0.0053
20,GGGGAAGCGC,1.01 ± 0.068
21,AGAGGGTTGT,0.992 ± 0.031
22,TGATAGTAT,0.96 ± 0.037
23,CTATGTTGTT,1 ± 0.018
24,AATGGGTGTG,1.01 ± 0.023
25,AGGGGGGGCG,0.975 ± 0.05

row,Sequence,switch fluorescence ratio
1,GAGGGTTGTT,0.997 ± 0.019
2,CGTCGGTTTG,0.993 ± 0.019
3,TTGAGGGCAT,1.29 ± 0.45
4,CGCGGGGTAG,1.038 ± 0.0072
5,TCAAGGGGCT,1 ± 0.013
6,ATGTCGACAG,1 ± 0.043
7,GGACTTCTGG,0.998 ± 0.041
8,TAGCTGAAGT,0.975 ± 0.038
9,CATATTATCA,1.02 ± 0.024
10,CGGGAAAGTC,0.996 ± 0.027
11,GGCCGGGGGA,1.03 ± 0.069
12,GTCGTAACAG,0.9857 ± 0.0047
13,CACTGCTCCT,1.09 ± 0.013
14,GAGTACTTTG,0.9847 ± 0.0015
15,GCCTGGGGGG,1.02 ± 0.042
16,GAGAGTACTT,0.9945 ± 0.0093
17,TTTTCCTGAG,1.04 ± 0.035
18,CGGGCCCCGG,1.74 ± 0.35
19,AACCTATGCT,1.012 ± 0.0018
20,GGGTATTTGG,0.987 ± 0.042
21,AGGCGTTTAG,1.03 ± 0.059
22,TACTTAGTTT,1.01 ± 0.077
23,TGAGTCGTTG,0.972 ± 0.01
24,AATGTGAGAC,1.07 ± 0.073
25,GGGTCTGGGT,0.984 ± 0.026

row,Sequence,switch fluorescence ratio
1,ATATCGCTGA,0.987 ± 0.013
2,GGTAGGAGCT,1.02 ± 0.058
3,ATTTATGTGG,0.998 ± 0.02
4,GTGTTTGGGT,0.978 ± 0.03
5,AAAATAATTG,1.03 ± 0.025
6,GCTTGCATTT,1.02 ± 0.035
7,CATGTTTTTT,0.987 ± 0.024
8,AGAAACGGGG,1.08 ± 0.15
9,CTTGTCATCG,0.993 ± 0.037
10,AATAGCGACT,1.026 ± 0.0052
11,TGGTTATACT,0.973 ± 0.052
12,TTAGTGCTCC,1.039 ± 0.0018
13,AGGGGGAGAT,1.02 ± 0.042
14,TTCTCTAATG,1.03 ± 0.016
15,GTCAGTTTTT,0.99392 ± 0.00038
16,TTGCGTATTT,0.993 ± 0.033
17,TTTGATAACG,0.987 ± 0.012
18,TCGATGAGGG,1.02 ± 0.026
19,GGGAATAGCG,0.977 ± 0.046
20,AGATGTCGTT,0.997 ± 0.039
21,TGCTGGGCC,1.02 ± 0.083
22,GTTTTTAGT,1.006 ± 0.0027
23,TTTTGGGCAT,1.04 ± 0.11
24,ATATCATCGG,0.964 ± 0.025
25,AGCTGAGGGG,1.01 ± 0.012

row,Sequence,switch fluorescence ratio
1,GCGTGTTTTT,1.04 ± 0.013
2,CTTTTTTTTT,1.02 ± 0.063
3,GGGAAAACCA,1.01 ± 0.0098
4,TTCAAGCAGA,1.034 ± 0.0087
5,TATGAGTCGA,1 ± 0.019
6,GCGATTTTTG,0.986 ± 0.041
7,ATTGTTGTGT,0.9992 ± 0.0099
8,TGGGGGGCCG,1.06 ± 0.19
9,TATGATTTGG,0.976 ± 0.031
10,TTTTCCTTGT,1.08 ± 0.13
11,GCGGAATGCA,0.997 ± 0.025
12,ATTTGAAGTT,0.975 ± 0.043
13,GACTTTTCGA,1 ± 0.04
14,TCATGGAATT,1 ± 0.031
15,CTCACTAGCG,1.02 ± 0.031
16,TTGTTTGGCC,1.05 ± 0.079
17,TTGATTCATT,1.01 ± 0.025
18,AACGGGGGTG,1.01 ± 0.045
19,GTTTGAGGGC,0.985 ± 0.052
20,GCTATTGCGG,1.028 ± 0.0042
21,GGGATGTTTT,0.991 ± 0.012
22,CGGGGTCGCC,0.984 ± 0.021
23,TTTAGTTCTG,0.9788 ± 0.0094
24,GTTGGAAACT,1.04 ± 0.017
25,CGGCTTACAC,1.12 ± 0.017
